Legend:
Assay in all cases: cell-based or functional assay
[1] = target: HIV Env of isolate P1981_C5_3 (HIV)
HIV Env of isolate CNE21 = HIV Env of isolate CNE21 (HIV)
[2] = target: HIV Env of isolate 6811.v7.c18 (HIV)
HIV Env of isolate CNE52 = HIV Env of isolate CNE52 (HIV)
[3] = target: HIV Env of isolate Q23.17 (HIV)
[4] = target: HIV Env of isolate REJO4541.67 (HIV)
[5] = target: HIV Env of isolate 1012_11_TC21_3257 (HIV)
[6] = target: HIV Env of isolate 1006_11_C3_1601 (HIV)
[7] = target: HIV Env of isolate CAAN5342.A2 (HIV)
[8] = target: HIV Env of isolate X2088_c9 (HIV)
[9] = target: HIV Env of isolate 928-28 (HIV)
[10] = target: HIV Env of isolate A07412M1.vrc12 (HIV)
[11] = target: HIV Env of isolate TRO.11 (HIV)
[12] = target: HIV Env of isolate ZM247v1(Rev-) (HIV)
[13] = target: HIV Env of isolate Du172.17 (HIV)
[14] = target: HIV Env of isolate X1193_c1 (HIV)
[15] = target: HIV Env of isolate HIV-001428-2.42 (HIV)
[16] = target: HIV Env of isolate ZM109F.PB4 (HIV)
[17] = target: HIV Env of isolate 0260.v5.c36 (HIV)
[18] = target: HIV Env of isolate T211-9 (HIV)
[19] = target: HIV Env of isolate BJOX009000.02.4 (HIV)
HIV Env of isolate CNE20 = HIV Env of isolate CNE20 (HIV)
HIV Env of isolate CNE58 = HIV Env of isolate CNE58 (HIV)
[20] = target: HIV Env of isolate RHPA4259.7 (HIV)
[21] = target: HIV Env of isolate 1394C9G1(Rev-) (HIV)
[22] = target: HIV Env of isolate 6811.v7.c18 (HIV); remark: listed apart in the source
[23] = target: HIV Env of isolate 6480.v4.c25 (HIV)
[24] = target: HIV Env of isolate 6952.v1.c20 (HIV)
[25] = target: HIV Env of isolate 0330.v4.c3 (HIV)
[26] = target: HIV Env of isolate T278-50 (HIV)
[27] = target: HIV Env of isolate HIV-0013095-2.11 (HIV)
[28] = target: HIV Env of isolate 191084_B7-19 (HIV)
[29] = target: HIV Env of isolate 1054_07_TC4_1499 (HIV)
[30] = target: HIV Env of isolate 6041.v3.c23 (HIV)
[31] = target: HIV Env of isolate X1632_S2_B10 (HIV)
[32] = target: HIV Env of isolate 231965.c01 (HIV)
[33] = target: HIV Env of isolate BJOX028000.10.3 (HIV)
[34] = target: HIV Env of isolate 249M_B10 (HIV)
[35] = target: HIV Env of isolate Ce2060_G9 (HIV)
[36] = target: HIV Env of isolate 6540.v4.c1 (HIV)
[37] = target: HIV Env of isolate T278-50 (HIV); remark: listed apart in the source
[38] = target: HIV Env of isolate HIV-0013095-2.11 (HIV); remark: listed apart in the source
[39] = target: HIV Env of isolate 6041.v3.c23 (HIV); remark: listed apart in the source
[40] = target: HIV Env of isolate ZM249M.PL1 (HIV)
[41] = target: HIV Env of isolate HIV-16055-2.3 (HIV)

B1: PGT-121 (antibody, V domains shown)
VH: QMQLQESGPGLVKPSETLSLTCSVSGASISDSYWSWIRRSPGKGLEWIGYVHKSGDTNYSPSLKSRVNLSLDTSKNQVSLSLVAATAADSGKYYCARTLHGRRIYGIVAFNEWFTYFYMDVWGNGTQVTVSS
VL: SDISVAPGETARISCGEKSLGSRAVQWYQHRAGQAPSLIIYNNQDRPSGIPERFSGSPDSPFGTTATLTITSVEAGDEADYYCHIWDSRVPTKWVFGGGTTLTVLG
B1 was tested, and the “neutralization (Table 6 value)” value [1] was 0.00146, the “neutralization (Table 6 value)” value (HIV Env of isolate CNE21) was 0.00525 and the “neutralization (Table 6 value)” value [2] was 0.00125. The “neutralization (Table 6 value)” value (HIV Env of isolate CNE52) was 1.94, the “neutralization (Table 6 value)” value [3] was 0.00412 and the “neutralization (Table 6 value)” value [4] was 0.286. For the same binder, the “neutralization (Table 6 value)” value [5] was 0.00917, the “neutralization (Table 6 value)” value [6] was 0.00382 and the “neutralization (Table 6 value)” value [7] was 0.00872. The “neutralization (Table 6 value)” value [8] was 0.00214, the “neutralization (Table 6 value)” value [9] was 0.836 and the “neutralization (Table 6 value)” value [10] was 0.00949. For the same binder, the “neutralization (Table 6 value)” value [11] was 0.00843, the “neutralization (Table 6 value)” value [12] was 0.0114 and the “neutralization (Table 6 value)” value [13] was 0.0316. The “neutralization (Table 6 value)” value [14] was 0.000417, the “neutralization (Table 6 value)” value [15] was 0.0111 and the “neutralization (Table 6 value)” value [16] was 0.558. For the same binder, the “neutralization (Table 6 value)” value [17] was 0.00144, the “neutralization (Table 6 value)” value [18] was 0.891 and the “neutralization (Table 6 value)” value [19] was 0.243. The “neutralization (Table 6 value)” value (HIV Env of isolate CNE20) was 0.00147, the “neutralization (Table 6 value)” value (HIV Env of isolate CNE58) was 1.28 and the “neutralization IC50” value [20] was 15 ng/mL. For the same binder, the “neutralization IC50” value [21] was 264 ng/mL, the “neutralization IC50” value [22] was 1 ng/mL and the “neutralization IC50” value [23] was 1 ng/mL. For the same binder, the “neutralization IC50” value [24] was 56 ng/mL, the “neutralization IC50” value [25] was 50 ng/mL and the “neutralization IC50” value [26] was over 50000 ng/mL. For the same binder, the “neutralization IC50” value [27] was over 50000 ng/mL, the “neutralization IC50” value [28] was 11 ng/mL and the “neutralization IC50” value [29] was 64 ng/mL. For the same binder, the “neutralization IC50” value [30] was over 50000 ng/mL and the “neutralization IC50” value [31] was over 50000 ng/mL.

B2: ePGT121.15.H1.L1 (antibody, V domains shown)
VH: QMQLQESGPGLVKPGETLSLTCSVSGASISSSYWSWLRETPGKGLEWIGYTHHSGDTNYAPSLKSRVHLGLHPSKNQVSLSLTSVTAADTAVYYCARTLHGRRIYGVVAFNEWFTYFYWEVWGNGTQVTVSS
VL: SDISVAPGETVRISCGGESIGSRAVQWYQHRAGQAPKLIIYNNQDRPPGIPERFSGSPDIDFGTTATLTITNVEAGDEATYYCHIWDSRRPTNWVFGGGTTLTVL
B2 was tested, and the “neutralization (Table 6 value)” value [1] was 0.00069, the “neutralization (Table 6 value)” value (HIV Env of isolate CNE21) was 0.000929 and the “neutralization (Table 6 value)” value [32] was 0.68. The “neutralization (Table 6 value)” value [2] was 0.00109, the “neutralization (Table 6 value)” value [33] was 0.0278 and the “neutralization (Table 6 value)” value (HIV Env of isolate CNE52) was 0.0515. For the same binder, the “neutralization (Table 6 value)” value [34] was 0.00639, the “neutralization (Table 6 value)” value [3] was 0.00126 and the “neutralization (Table 6 value)” value [35] was 0.0102. For the same binder, the “neutralization (Table 6 value)” value [4] was 0.311, the “neutralization (Table 6 value)” value [36] was 0.249 and the “neutralization (Table 6 value)” value [37] was 0.0232. The “neutralization (Table 6 value)” value [38] was 1.07, the “neutralization (Table 6 value)” value [5] was 0.00262 and the “neutralization (Table 6 value)” value [6] was 0.00195. For the same binder, the “neutralization (Table 6 value)” value [7] was 0.00192, the “neutralization (Table 6 value)” value [39] was 0.396 and the “neutralization (Table 6 value)” value [8] was 0.00147. For the same binder, the “neutralization (Table 6 value)” value [40] was 0.00404, the “neutralization (Table 6 value)” value [9] was 0.0868 and the “neutralization (Table 6 value)” value [10] was 0.000964. For the same binder, the “neutralization (Table 6 value)” value [11] was 0.00156, the “neutralization (Table 6 value)” value [12] was 0.00158 and the “neutralization (Table 6 value)” value [13] was 0.0024. For the same binder, the “neutralization (Table 6 value)” value [14] was 0.000256, the “neutralization (Table 6 value)” value [15] was 0.00153 and the “neutralization (Table 6 value)” value [16] was 2.15. For the same binder, the “neutralization (Table 6 value)” value [17] was 0.00247, the “neutralization (Table 6 value)” value [18] was 0.00532 and the “neutralization (Table 6 value)” value [19] was 0.0255. For the same binder, the “neutralization (Table 6 value)” value [41] was 1.07, the “neutralization (Table 6 value)” value (HIV Env of isolate CNE20) was 0.000933 and the “neutralization (Table 6 value)” value (HIV Env of isolate CNE58) was 0.00795. For the same binder, the “neutralization IC50” value [20] was 0.3 ng/mL, the “neutralization IC50” value [21] was 0.4 ng/mL and the “neutralization IC50” value [22] was 1.2 ng/mL. For the same binder, the “neutralization IC50” value [23] was 1.2 ng/mL, the “neutralization IC50” value [24] was 0.9 ng/mL and the “neutralization IC50” value [25] was 1.5 ng/mL. For the same binder, the “neutralization IC50” value [26] was 12.4 ng/mL, the “neutralization IC50” value [27] was 0.1 ng/mL and the “neutralization IC50” value [28] was 0.9 ng/mL. For the same binder, the “neutralization IC50” value [29] was 0.1 ng/mL, the “neutralization IC50” value [30] was 12400 ng/mL and the “neutralization IC50” value [31] was over 50000 ng/mL.

B3: ePGT121.15.H6.L1 (antibody, V domains shown)
VH: QMQLQESGPGLVKPGETLSLTCSVSGASISSSYWSWLRETPGKGLEWIGYTHHSGDTNYAPSLKSRVHLGLHPSKNQVSLSLTSVTAADTAVYYCARTLHGRRIYGVVAFNEFFTYFYWEVWGKGTQVTVSS
VL: SDISVAPGETVRISCGGESIGSRAVQWYQHRAGQAPKLIIYNNQDRPPGIPERFSGSPDIDFGTTATLTITNVEAGDEATYYCHIWDSRRPTNWVFGGGTTLTVL
In the case of B3, the “neutralization (Table 6 value)” value [1] is reported as 0.000543, the “neutralization (Table 6 value)” value (HIV Env of isolate CNE21) is reported as 0.00124 and the “neutralization (Table 6 value)” value [32] is reported as 1.27. The “neutralization (Table 6 value)” value [2] was 0.00114, the “neutralization (Table 6 value)” value [33] was 0.00171 and the “neutralization (Table 6 value)” value (HIV Env of isolate CNE52) was 0.0784. The “neutralization (Table 6 value)” value [34] was 0.0118, the “neutralization (Table 6 value)” value [3] was 0.00146 and the “neutralization (Table 6 value)” value [35] was 0.0369. For the same binder, the “neutralization (Table 6 value)” value [4] was 8e-06, the “neutralization (Table 6 value)” value [36] was 0.612 and the “neutralization (Table 6 value)” value [37] was 0.0263. The “neutralization (Table 6 value)” value [38] was 0.635, the “neutralization (Table 6 value)” value [5] was 0.00194 and the “neutralization (Table 6 value)” value [6] was 0.00214. The “neutralization (Table 6 value)” value [7] was 0.00221, the “neutralization (Table 6 value)” value [39] was 0.417 and the “neutralization (Table 6 value)” value [8] was 0.00108. For the same binder, the “neutralization (Table 6 value)” value [40] was 0.0127, the “neutralization (Table 6 value)” value [9] was 0.0852 and the “neutralization (Table 6 value)” value [10] was 0.00204. The “neutralization (Table 6 value)” value [11] was 0.0014, the “neutralization (Table 6 value)” value [12] was 0.00191 and the “neutralization (Table 6 value)” value [13] was 0.00203. For the same binder, the “neutralization (Table 6 value)” value [14] was 0.000518, the “neutralization (Table 6 value)” value [15] was 0.00181 and the “neutralization (Table 6 value)” value [16] was 0.742. The “neutralization (Table 6 value)” value [17] was 0.00217, the “neutralization (Table 6 value)” value [18] was 0.00751 and the “neutralization (Table 6 value)” value [19] was 0.0166. The “neutralization (Table 6 value)” value [41] was 0.635, the “neutralization (Table 6 value)” value (HIV Env of isolate CNE20) was 0.00133 and the “neutralization (Table 6 value)” value (HIV Env of isolate CNE58) was 0.0145.

From patent publication US20210292396A1 (INTERNATIONAL AIDS VACCINE INITIATIVE, published 2021)
